Assay [1] has as its target Getah virus capsid protein (Getah virus (GETV), strain SC483). Nature of the assay: cryo-EM structure.
In assay [2] the target is Getah virus envelope glycoprotein E2 (Getah virus (GETV), strain SC483). Put plainly: cryo-EM structure.

This is an account of results in publication PMC8876998.

“And” between values parts separate entries of the source, which are not always exact repeats. Identical values can stand only once.

Consider “Getah virus capsid protein (natural protein)”, for which the stoichiometry N in assay [1] was 6 and 5.

In assay [2], “Getah virus envelope glycoprotein E2 (natural protein)” showed a stoichiometry N of 3.

Usually stoichiometry N stands for the number of molecules, sites or subunits per partner or assembly.
